pKd: −log10 of the molar value.
Columns and labels:
[1] = biological target: native LIC11711 (L. interrogans serovar Copenhageni (endogenous in strain M20)); experiment: western blot of cell extracts; L. interrogans M20 cells treated with proteinase K for 0, 1 and 3 h, extracts blotted and probed with antiserum against rLIC11711
[2] = biological target: vitronectin (human); experiment: ELISA; vitronectin (250 ng/well) coated, 5 uM recombinant protein plus increasing heparin, 2 h at 37 C; HRP anti-His MAbs
[3] = biological target: plasminogen (human); experiment: ELISA; time course: 1 ug PLG coated, 1 ug recombinant protein for 5, 15, 30, 60 and 120 min; anti-His MAbs; percent of the 120 min value
[4] = biological target: E-cadherin (UniProt P12830); experiment: ELISA; dose-response: 1 ug host component or BSA coated, increasing recombinant protein (0-20 uM); HRP anti-His MAb; KD by non-linear regression in GraphPad Prism 6
[5] = biological target: recombinant protein LIC11711 (L. interrogans serovar Copenhageni (strain M20 genomic DNA)); experiment: non-reducing SDS-PAGE with western blot; purified recombinant proteins, non-reducing against reducing treatment (beta-mercaptoethanol and heating at 96 C); probed with anti-His MAbs or polyclonal antisera
[6] = biological target: complement component C7 (human) (UniProt P10643); experiment: ELISA; dose-response: 1 ug host component or BSA coated, increasing recombinant protein (0-20 uM); HRP anti-His MAb; KD by non-linear regression in GraphPad Prism 6
[7] = biological target: complement component C8 (human) (UniProt P07357); experiment: as above
[8] = biological target: complement component C9 (human) (UniProt P02748); experiment: as above
UniProt P02748, sequence (P02748 22-559): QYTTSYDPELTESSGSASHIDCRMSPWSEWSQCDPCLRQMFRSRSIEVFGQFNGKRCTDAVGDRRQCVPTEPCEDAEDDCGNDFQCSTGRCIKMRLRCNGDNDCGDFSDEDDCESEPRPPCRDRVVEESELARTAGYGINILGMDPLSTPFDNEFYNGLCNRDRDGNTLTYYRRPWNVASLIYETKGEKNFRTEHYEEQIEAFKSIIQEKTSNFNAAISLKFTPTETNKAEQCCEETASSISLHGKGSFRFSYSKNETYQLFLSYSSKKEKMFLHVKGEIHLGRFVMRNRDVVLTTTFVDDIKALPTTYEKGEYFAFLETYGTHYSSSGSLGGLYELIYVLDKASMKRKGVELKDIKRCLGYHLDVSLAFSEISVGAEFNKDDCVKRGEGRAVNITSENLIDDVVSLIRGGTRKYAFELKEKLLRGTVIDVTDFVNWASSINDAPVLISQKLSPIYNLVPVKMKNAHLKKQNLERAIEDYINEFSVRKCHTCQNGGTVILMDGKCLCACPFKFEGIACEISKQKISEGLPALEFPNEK

UniProt P10643, sequence (P10643 23-843): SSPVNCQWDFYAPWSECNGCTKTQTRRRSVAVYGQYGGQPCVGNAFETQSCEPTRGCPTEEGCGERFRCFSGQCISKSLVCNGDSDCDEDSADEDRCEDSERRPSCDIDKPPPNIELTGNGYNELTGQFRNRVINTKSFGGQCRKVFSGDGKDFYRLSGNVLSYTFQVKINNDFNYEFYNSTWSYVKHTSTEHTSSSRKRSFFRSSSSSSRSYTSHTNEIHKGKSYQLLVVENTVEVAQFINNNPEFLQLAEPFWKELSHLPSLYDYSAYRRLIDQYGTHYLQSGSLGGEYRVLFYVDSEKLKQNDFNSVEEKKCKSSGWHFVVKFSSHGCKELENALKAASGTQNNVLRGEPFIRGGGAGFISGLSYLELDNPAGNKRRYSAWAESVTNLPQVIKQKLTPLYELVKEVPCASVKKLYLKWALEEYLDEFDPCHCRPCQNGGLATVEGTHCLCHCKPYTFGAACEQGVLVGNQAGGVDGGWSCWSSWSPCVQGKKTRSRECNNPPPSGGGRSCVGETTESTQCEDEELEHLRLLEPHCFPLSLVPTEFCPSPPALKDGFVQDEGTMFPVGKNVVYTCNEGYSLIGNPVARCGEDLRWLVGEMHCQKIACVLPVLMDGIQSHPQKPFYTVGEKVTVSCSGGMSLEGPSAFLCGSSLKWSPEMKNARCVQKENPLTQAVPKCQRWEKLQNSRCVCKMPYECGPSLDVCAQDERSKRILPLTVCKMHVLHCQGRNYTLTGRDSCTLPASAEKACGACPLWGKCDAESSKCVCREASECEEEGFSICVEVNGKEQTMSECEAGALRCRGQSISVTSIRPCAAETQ
UniProt P07357, sequence (P07357 31-584, chain 1 of 3): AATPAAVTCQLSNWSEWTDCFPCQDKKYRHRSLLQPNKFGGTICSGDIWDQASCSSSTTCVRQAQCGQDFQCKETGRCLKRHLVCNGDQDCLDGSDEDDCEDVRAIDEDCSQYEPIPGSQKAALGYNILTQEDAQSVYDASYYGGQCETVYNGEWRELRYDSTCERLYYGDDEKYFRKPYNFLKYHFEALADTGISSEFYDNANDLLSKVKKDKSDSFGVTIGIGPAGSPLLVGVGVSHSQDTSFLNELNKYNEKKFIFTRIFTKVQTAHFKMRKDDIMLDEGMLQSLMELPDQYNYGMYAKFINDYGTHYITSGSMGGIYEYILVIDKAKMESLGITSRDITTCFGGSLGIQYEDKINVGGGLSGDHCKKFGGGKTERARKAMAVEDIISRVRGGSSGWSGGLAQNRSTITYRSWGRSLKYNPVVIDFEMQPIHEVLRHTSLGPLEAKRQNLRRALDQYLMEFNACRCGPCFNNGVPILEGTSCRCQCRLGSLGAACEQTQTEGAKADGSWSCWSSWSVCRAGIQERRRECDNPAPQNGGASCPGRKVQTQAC
UniProt P07357, sequence (P07358 55-591, chain 2 of 3, further chain): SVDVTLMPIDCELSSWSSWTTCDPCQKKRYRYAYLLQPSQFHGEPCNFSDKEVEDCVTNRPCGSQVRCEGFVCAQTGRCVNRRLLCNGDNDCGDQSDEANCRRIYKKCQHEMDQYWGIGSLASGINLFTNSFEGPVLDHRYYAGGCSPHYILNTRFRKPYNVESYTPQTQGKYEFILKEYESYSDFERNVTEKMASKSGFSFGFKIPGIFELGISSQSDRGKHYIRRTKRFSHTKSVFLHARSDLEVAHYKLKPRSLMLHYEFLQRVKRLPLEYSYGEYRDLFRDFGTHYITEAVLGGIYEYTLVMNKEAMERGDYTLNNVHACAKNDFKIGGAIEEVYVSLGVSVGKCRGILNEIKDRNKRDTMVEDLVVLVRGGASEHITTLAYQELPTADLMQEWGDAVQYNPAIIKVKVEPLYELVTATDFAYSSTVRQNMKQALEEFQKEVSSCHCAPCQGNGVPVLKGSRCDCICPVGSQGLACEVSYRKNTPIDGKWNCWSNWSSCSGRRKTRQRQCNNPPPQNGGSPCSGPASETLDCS
UniProt P07357, sequence (P07360 21-202, chain 3 of 3, further chain): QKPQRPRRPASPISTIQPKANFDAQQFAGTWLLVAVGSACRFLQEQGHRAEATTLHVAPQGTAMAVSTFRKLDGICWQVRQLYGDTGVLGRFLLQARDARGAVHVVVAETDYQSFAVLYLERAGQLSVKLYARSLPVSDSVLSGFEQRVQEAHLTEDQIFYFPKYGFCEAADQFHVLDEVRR

Substance | stoichiometry N [1] | percent reduction of binding with 10 ug/well heparin [2] | percent reduction of binding with 100 ug/well heparin [2] | percent of the maximal binding (2 h) reached at 5 min [3] | pKd [4] | stoichiometry N [5] | pKd [6] | pKd [7] | pKd [8]
native LIC11711 (natural protein) | 2 | – | – | – | – | – | – | – | –
recombinant protein LIC11711 (natural protein) | – | 40% | 54% | 40% | 5.42 | 2 | – | – | –
recombinant protein LIC12587 (natural protein) | – | 10% | 51% | – | – | – | 5.71 | 6.33 | 6.20
